Measurements from US9962427B2, “Treatment of right ventricular dysfunction due to pressure overload” (OTTAWA HOSPITAL RESEARCH INSTITUTE, priority 2016, dated 2018).

How the values were obtained:
P19 cells = test: P19 cardiac differentiation (cTnT immunofluorescence, beating clusters, immunoblot); format: cell-based, mouse
Protocol: FIG. 9A Schematic for cardiac differentiation of pluripotent P19 cells. FIG. 9B Immunofluorescence results for the cardiac-specific marker Troponin T (cTnT) in P19 cardiac cells at day 7 of differentiation in the presence of varying doses of hCT1 ranging from 0-500 ng/mL (0-25 nM). Quantification of expression of cTnT is shown on the graph. FIG. 9C Quantification of beating clusters in P19 cardiac cells at day 13-15 of differentiation in the presence of varying doses of hCT1. FIG. 9D Immunoblot for the cardiac markers cTnT and GATA4 in whole cell lysates from a P19 cardiac differentiation timecourse in the presence and absence of hCT1.
Protection during conditions of cardiac pathologies can be conferred not only by the activation of pro-survival/pro-angiogenic signaling pathways but also by inducing the differentiation of cardiogenic progenitor cells. […] To test the effect of CT1 on cardiomyocyte differentiation, undifferentiated cells were induced to undergo cardiac differentiation with 0.8% DMSO and aggregation. At day 0, P19 cells are plated onto non-adherent bacterial petri dishes in the presence of MEMα growth media with 0.8% DMSO (control) or in the presence of different doses of hCT1-containing MEMα media ranging from 0.5 nM (10 ng/mL) to 25 nM (500 ng/mL) with 0.8% DMSO. P19 cells are then allowed to aggregate for 4 days. Finally, aggregates are then transferred onto adherent tissue culture dishes in the same media (this time in the absence of DMSO) to allow for subsequent cardiac differentiation (FIG. 9A, adapted from Skerjanc et al. 1999; Trends in Cardiovascular Medicine, volume 9, pages 139-143). The cardiac specific marker Troponin T (cTnT) was used (by immunofluorescence) to identify differentiated cells.
Differentiation was also followed up to day 15 and the number of visually beating clusters was used to assess cardiac differentiation. […]

Fischer CDF rats = test: SU5416/hypoxia model of severe pulmonary hypertension, weekly echocardiography and hemodynamics; format: in vivo, rat
Protocol: FIGS. 5A and 5B. Human Cardiotrophin-1 (hCT1) improves RV adaptation to severe Pulmonary Hypertension (PH) in Fischer rats.
Given that CT-1 induces phenotypic characteristics associated with beneficial RV physiologic adaptive compensation, a prediction was made by the Applicants that CT-1 would enhance RV adaptation to increased afterload in a disease setting. This supposition was tested to examine whether CT-1 protein can improve the ability of the RV to functionally adapt and limit or reduce right heart failure that is associated with pulmonary arterial hypertension (PAH), a form of PH caused by abnormalities in the lung vasculature (FIGS. 5A and 5B). PAH has a highly tractable and reproducible rodent equivalent, the […]/hypoxia rat model, which recapitulates many key aspects of the disease including progressive right heart failure in the Fischer CDF™ rat strain, a feature that is not observed in the Sprague Dawley strain in the same model of PH. Use of this PH model offers a clear advantage in providing an accurate preclinical disease setting to test the utility of CT-1, rather than simply testing co-administration of CT-1 with general […] stimulants such as PE or ISO in vivo. […] Also, right heart failure drives symptoms and prognosis in many forms of PH, including in Group 2 PH caused by increases in left ventricular filling pressures, of which heart failure with preserved ejection fraction (HFpEF) is an important example which is increasingly recognized as one of the greatest therapeutic challenges in clinical cardiology today. PH was induced by administering a single subcutaneous injection of SU5416 (20 mg/kg) to Fischer CDF™ rats followed by exposure to chronic hypoxia (8-10% O2) for 3 weeks. After these 3 weeks, rats were recovered for 24 hours in normoxia before implantation of PBS filled (control) or hCT-1 filled (6 μg/kg/hr delivery) osmotic minipumps. Control rats were exposed to normoxic conditions throughout the study and only treated with PBS (FIG. 5A). Echocardiography analyses were conducted weekly and the following parameters were measured: Right Ventricle Posterior Wall thickness (RVPW), Ratio of Right Ventricle Internal Diameter to Left Ventricle Internal (RVID/LVID), Pulmonary Artery Acceleration Time (PAAT), Fractional Area Change (FAC), and Cardiac Output (CO). At 3 weeks (prior to pump implantation), there was already a marked and significant increase in the RVID/LVID ratio, indicative of developing RV failure in this model of severe PH. In PH animals receiving saline, there was a progressive increase in this ratio over the subsequent 3 weeks, associated with other evidence of progressive RV failure, such as worsening contractile function (Fractional Area Shortening) and reductions in cardiac output.

[1] = hCT-1 6 μg/kg/hr minipump from week 3
[2] = hCT-1 6 μg/kg/hr minipump from week 3, over 3 weeks

B1: hCT1: Recombinant human CT1 protein; 201 amino acid sequence, GenBank Accession Nos AAD12173 and AAA85229 (human) (protein, UniProt Q16619 1-201, looked up)
Cardiotrophin-1: MSRREGSLEDPQTDSSVSLLPHLEAKIRQTHSLAHLLTKYAEQLLQEYVQLQGDPFGLPSFSPPRLPVAGLSAPAPSHAGLPVHERLRLDAAALAALPPLLDAVCRRQAELNPRAPRLLRRLEDAARQARALGAAVEALLAALGAANRGPRAEPPAATASAASATGVFPAKVLGLRVCGLYREWLSRTEGDLGQLLPGGSA
- GATA4 and cTnT expression (immunoblot) (P19 cells; 10 ng/mL (0.5 nM) hCT1, days 5 and 7): significantly inhibited GATA4 and cTnT expression
- differentiation of cardiac cells (cTnT+/DAPI+) (P19 cells; day 7, any dose 0.5 nM to 25 nM): significantly inhibited the differentiation of cardiac cells
- number of beating clusters (P19 cells; days 13, 14, and 15): no beating clusters were detected
- RV afterload (right ventricular systolic pressure, RVSP) (Fischer CDF rats; [1]): without any alteration in the RV afterload
- right atrial pressure (RAP) (Fischer CDF rats; [1]): significant decrease in right atrial pressure
- RVID/LVID ratio (Fischer CDF rats; [2]): progressive improvement in the RVID/LVID ratio
- cardiac output (Fischer CDF rats; [2]): improvements
- contractile function (Fischer CDF rats; [2]): improvements in contractile function
